As usually defined, the Kd is a measure of binding affinity in units of concentration. A lower Kd goes with tighter binding. For orientation: IC50 means the point on the concentration scale where inhibition reaches its midpoint. What is called EC50 is the midpoint of the concentration-response curve. A lower EC50 goes with an effect from little substance.

The values that follow come from patent publication US20200362021A1 (PHANES THERAPEUTICS, published 2020).

For assay [1], the target named is T1, biotin-apelin-13 (biotin-…) (N-terminal biotin).
T1 construct: also called Biotin-APL13
Put plainly: SPR (Biacore), biotin-apelin-13 on streptavidin CM5 chip, mAb at 12.5-100 nM. The method, then: Anti-apelin mAbs at four different concentrations (12.5 nM, 25 nM, 50 nM and 100 nM) were captured on the chip surface. The on- and off-rate for antibody-antigen binding were measured, curve fitted and calculated.
For orientation: Surface plasmon resonance follows binding to a sensor surface in real time, without labels.

The target of assay [2] is T2, apelin peptide 5-13 (LSHKGPMPF).
T2 peptide: LSHKGPMPF
The experiment in a line: competition ELISA, captured mAb, peptide competes with biotin-apelin-13, A405. The method, then: (§1) Goat-anti-rabbit IgG was immobilized on an ELISA plate.
(§2) The antibody binding sites for anti-apelin mAbs C8, C24, and C25 were mapped using an ELISA-based peptide competition assay. […] Each of the competition peptides (Table 7) was assessed for its ability to inhibit biotin-apelin-13 binding to the mAb. An inhibition signal reflects the ability of the competition peptide to bind to the mAb in solution.
(§3) For the peptide competition assay, goat anti-rabbit IgG in carbonate coating buffer was coated on high binding ELISA plates at 1 μg/ml overnight. […] After incubation at room temperature for 60 minutes, the plates were washed and then streptavidin-conjugated to alkaline phosphatase was added, and the binding was detected by adding PNPP substrate and reading absorbance of ELISA plates at 405 nm. Each competition peptide or control sample was assayed in duplicate for a given mAb. […] “No comp:” no competition peptide was added; “No Ab, No Comp:” neither competition peptide nor anti-apelin mAb was added.

Assay [3] deals with T3, apelin peptide 7-13 (HKGPMPF).
T3 peptide: HKGPMPF
The assay is described as above. The method, then: as §1, §2, §3

The target in the next assay is T4, 10-13.
T4 construct: also called apelin peptide 10-13 (PMPF)
T4 peptide: PMPF
The assay is described as above. The method, then: as §1, §2, §3

For assay [4], the target named is T5, apelin peptide 3-13 (PRLSHKGPMPF).
T5 peptide: PRLSHKGPMPF
Described as above. The method, then:
as §1, §2, §3

Assay [5] addresses T6, apelin peptide 6-13 (SHKGPMPF).
T6 peptide: SHKGPMPF
The assay is described as above. The method, then:
as §1, §2, §3

In assay [6] the target is T7, apelin peptide 1-12 (QRPRLSHKGPMP).
T7 peptide: QRPRLSHKGPMP
The assay is described as above. The method, then:
as §1, §2, §3

Assay [7] concerns the target T8, apelin peptide 8-13 (KGPMPF).
T8 peptide: KGPMPF
The assay is described as above. The method, then: as §1, §2, §3

A further assay addresses T9, 9-13.
T9 construct: also called apelin peptide 9-13 (GPMPF)
T9 peptide: GPMPF
The assay is described as above. The method, then: as §1, §2, §3

The target in assay [8] is T10, apelin peptide 4-13 (RLSHKGPMPF).
T10 peptide: RLSHKGPMPF
The assay is described as above. The method, then: as §1, §2, §3

The target in assay [9] is alanine scanning peptide 9A (KAPMPF). Described as above. The method, then:
(§4) Goat anti-rabbit IgG was immobilized on an ELISA plate. […] Several competition peptides were used as controls.
as §3

Assay [10] addresses T11, alanine scanning peptide 10A (KGAMPF).
T11 peptide: KGAMPF
Described as above. The method, then: as §4, §3

In assay [11] the target is T12, apelin peptide 2-13 (RPRLSHKGPMPF).
T12 peptide: RPRLSHKGPMPF
Described as above. The method, then:
as §4, §3

Assay [12] deals with alanine scanning peptide 8A (AGPMPF). The assay is described as above. The method, then: as §4, §3
The target of assay [13] is T13, alanine scanning peptide 13A (KGPMPA).
T13 peptide: KGPMPA
Described as above. The method, then:
as §4, §3

The target in assay [14] is apelin 13 (competition peptide 1-13, …). Put plainly: cell-based or functional assay.
Another assay concerns the target T14, pyro-apelin 13 (N-terminal pyroglutamate).
T14 peptide: ERPRLSHKGPMPF
Put plainly: cell-based or functional assay.

For assay [15], the target named is T1, biotin-apelin-13 (biotin-…). Put plainly: SPR (Biacore) with biotin-apelin-13, humanized IgG1 mAb in HEK293 supernatant. The source says:
The rabbit anti-apelin mAb C8 was humanized to reduce the potential of immunogenicity when used in human patients. The sequences of the variable regions of the heavy and light chains (VH and VL) were compared with the human antibody sequences in the Protein Data Bank (PDB) database and a homology model was built by applying SWISS-modeling. The CDRs in both the heavy and light chains of the rabbit mAb were grafted into human frameworks that have the highest possibility of maintaining the proper structure likely required for antigen binding. Backmutations from human residue to rabbit residue were designed when necessary. The sequences of the humanized VH and VL regions are shown in Table 11 and Table 12, respectively. The humanized VH and VL regions were fused to human IgG1 heavy chain and kappa light chain constant regions, respectively, to generate humanized mAbs. Constructs corresponding to the mAb sequences were used for transient transfection in HEK 293 cells and the supernatants were analyzed for the affinity of each humanized mAb for apelin.

Assay [16] has the same target. The experiment in a line: ELISA, increasing concentrations of IgG4 mAb immobilized on plate, biotin-apelin-13 added, streptavidin-AP detection. From the text: Two additional humanized mAbs (B24 and B25) were generated with sequence modifications on A31. […] The binding was then detected by adding PNPP substrate and reading absorbance of the ELISA plates at 405 nm.
For orientation: In an ELISA, binding on a coated surface is turned into a signal by an enzyme label.

B1: anti-apelin mAb C8 (antibody, V domains shown)
VH: QSVEESGGRLVTPGTPLTLTCTVSGIDLYSNRMSWVRQAPGKGLEWIGSIGSSPWYASWAQGRFTISKTSSTTVNLKITSPTTEDTATYFCAKGGYRPGASVWGPGTLVTVSS
VL: QVLTQTESPVSAPVGGTVTIACQSSQSVYDNNDLAWYQQKAGQTPKRLIYLASSLDSGVPSRFKGSGSGTEFTLTISDLECDDAATYYCAGGYSGDIYTFGGGTEVVVE
notes: recombinant rabbit IgG made in HEK293 cells
In the case of B1, in [1], the Kd was determined as 0.0174 nM. The binding result in [2] is listed as “binds”; in assay [3], “binds”; with 10-13, “binds”; in [4], “binds”; in assay [5], “binds”; in [6], “no binding (tested: peptide concentration not stated)”. The binding result (in [7]; in the assay with 9-13; in assay [8]; in assay [9]; in assay [10]; in [11]) was “binds” each time. In addition, in [12], the binding result is listed as “binds”.

B2: anti-apelin mAb C24 (antibody, V domains shown)
VH: QSLEESGGRLVTPGTPLTLTCTVSGIDLYTNRVSWVRQAPGKGLDWIGSIGSSPWYASWAQGRFTISKTSTTVNLKITSSTTEDTATYFCAKGGYRPGGSIWGPGTLVTVSS
VL: QVLTQSASPVSAAVGDSVTIACQSSQSVYDNNDLGWYQQKPGQTPKRLIYLASSLDSGVPSRFSGSGSGTQFTLTISDLECDDAATYYCAGGYSGDIYTFGGGTEVVVK
notes: as for B1
B2 registered a Kd in [1] of 0.000401 nM. Besides, the binding result in assay [2] is reported as “binds”; in assay [3] it was “binds”; with 10-13, “binds”; in assay [4] it was “binds”; in assay [5], “binds”; in assay [6], “no binding (tested: peptide concentration not stated)”. The binding result is listed as “binds” in assay [7]; “binds” with 9-13; “binds” in assay [8]; “binds” in assay [9]; “no binding (tested: peptide concentration not stated)” in assay [13]; “binds” in assay [10]. Also, the binding result in [11] and in assay [12] was “binds” each time.

B3: anti-apelin mAb C25 (antibody, V domains shown)
VH: QSLEESGGGLVTPGTPLTLTCTVSGIDLYTNRMSWVRQAPGKGLEWIGSIGSSPWFASWALGRFTISKTSTTVNLKITSPTTEDTATYFCAKGGYRPGASVWGPGTLVTVSS
VL: QVLTQTESPVSAPVGGTVTIACQSSQSVYDNNDLAWYQQKAGQTPKRLIFLASSLDSGVPSRFKGSGSGTEFTLTISDLECDDAATYYCAGGYNGDIYTFGGGTEVVVK
notes: as for B1
For the molecule B3, the Kd in [1] came to 0.0508 nM. Besides, the binding result is recorded as “binds” in assay [2]; “binds” in assay [3]; “binds” in the assay with 10-13; “binds” in [4]; “binds” in assay [5]; “no binding (tested: peptide concentration not stated)” in assay [6]. Besides, the binding result in assay [7] is recorded as “binds”; with 9-13 it was “binds”; in assay [8], “binds”; in assay [9] it was “binds”; in assay [13] it was “no binding (tested: peptide concentration not stated)”; in [10] it was “binds”. The binding result in assay [11] and in [12] was “binds” in each case.

B4: humanized anti-apelin mAb A31 (human IgG1 backbone) (antibody, V domains shown)
VH: QSLEESGGGLVQPGGSLRLSCAVSGIDLYSNRMSWVRQAPGKGLEWVGSIGSSPWYASWAQGRFTISRDNSNTVYLQMNSLTAEDTATYFCAKGGYRPGASVWGQGTLVTVSS
VL: DIQLTQSPSSLSASVGDRVTITCQSSQSIYDNNDLAWYQQKPGKTPKRLIYLASSLDSGVPSRFSGSGSGTDFTLTISSLQPEDVATYYCAGGYSGDIYTFGGGTKVEIK
notes: humanized from C8; tested as HEK293 supernatant
Take B4: the IC50 was 25 nM in assay [14] and 19.9 nM with pyro-apelin 13. The same molecule displayed a Kd in assay [15] of 0.000148 nM.

B5: humanized anti-apelin mAb A31 (human IgG4 backbone) (antibody, V domains shown)
VH: QSLEESGGGLVQPGGSLRLSCAVSGIDLYSNRMSWVRQAPGKGLEWVGSIGSSPWYASWAQGRFTISRDNSNTVYLQMNSLTAEDTATYFCAKGGYRPGASVWGQGTLVTVSS
VL: DIQLTQSPSSLSASVGDRVTITCQSSQSIYDNNDLAWYQQKPGKTPKRLIYLASSLDSGVPSRFSGSGSGTDFTLTISSLQPEDVATYYCAGGYSGDIYTFGGGTKVEIK
For the molecule B5, the EC50 in assay [16] was found to be 0.21 nM.

B6: humanized anti-apelin mAb B25 (human IgG4 backbone) (antibody, V domains shown)
VH: QSLEESGGGLVQPGGSLRLSCTVSGIDLYTNRMSWVRQAPGKGLEWVGSIGSSPWFASWALGRFTISRDNSNTVYLKMNSPTAEDTATYFCAKGGYRPGASVWGQGTLVTVSS
VL: DIQLTQSPSSLSASVGDRVTITCQSSQSIYDNNDLAWYQQKPGKTPKRLIYLASSLDSGVPSRFSGSGSGTDFTLTISSLQPEDVATYYCAGGYNGDIYTFGGGTKVEIK
With B6, in [16], the EC50 stood at 0.47 nM. Compared with the last molecule, the EC50 is about 2.2-fold higher.

B7: humanized anti-apelin mAb B24 (human IgG4 backbone) (antibody, V domains shown)
VH: QSLEESGGGLVQPGGSLRLSCTVSGIDLYTNRVSWVRQAPGKGLEWVGSIGSSPWYASWAQGRFTISRDNSNTVYLKMNSPTAEDTATYFCAKGGYRPGGSIWGQGTLVTVSS
VL: DIQLTQSPSSLSASVGDRVTITCQSSQSIYDNNDLGWYQQKPGKTPKRLIYLASSLDSGVPSRFSGSGSGTDFTLTISSLQPEDVATYYCAGGYSGDIYTFGGGTKVEIK
In assay [16], B7 returned an EC50 of 0.79 nM. Against the preceding molecule, the EC50 is about 1.7-fold higher.
